From article PMC3589475, “Large-Scale Functional Purification of Recombinant HIV-1 Capsid” (PLoS ONE, 2013)

What was measured:
[1] = target: quadruple mutant (A14C/E45C/W184A/M185A) CA monomer (CA 4Mu) (HIV-1 (NL4-3 strain)); assay: AUC; sedimentation velocity, cross-linked CA 4Mu hexamer at 4.13, 8.25 and 16.5 µM (as monomers), 50 mM sodium phosphate pH 7.5, 25°C, 45,000 rpm, no reducing agent
[2] = target: HIV-1 capsid (CA) (Human immunodeficiency virus 1) (UniProt O93182); details: cited from earlier work
[3] = target: wild-type HIV-1 capsid protein (WT CA) (HIV-1 (pLAI.2)) (UniProt P03348); assay: AUC; sedimentation velocity, WT CA at 0.94, 1.88, 3.75 and 7.5 µM, 50 mM sodium phosphate pH 7.5, 25°C, 45,000 rpm; monomer to dimer, at high protein concentration

With “quadruple mutant (A14C/E45C/W184A/M185A) CA monomer (CA 4Mu) (natural protein)” the percent in hexameric form [1] was 94% and the stoichiometry N [1] was 6.

In the case of HIV-1 capsid (CA) (from UniProt O93182), the Kd [2] is given as 14 µM.

In the case of “wild-type HIV-1 capsid protein (WT CA) (from UniProt P03348 133-363) (natural protein)”, the stoichiometry N [3] is reported as 2.
